Measurements published in IntAct's records for PubMed 23594738.

B1: Protein lin-28 homolog A (Mus musculus), Q8K3Y3 (parent)
chain: MGSVSNQQFAGGCAKAAEKAPEEAPPDAARAADEPQLLHGAGICKWFNVRMGFGFLSMTARAGVALDPPVDVFVHQSKLHMEGFRSLKEGEAVEFTFKKSAKGLESIRVTGPGGVFCIGSERRPKGKNMQKRRSKGDRCYNCGGLDHHAKECKLPPQPKKCHFCQSINHMVASCPLKAQQGPSSQGKPAYFREEEEEIHSPALLPEAQN
partner: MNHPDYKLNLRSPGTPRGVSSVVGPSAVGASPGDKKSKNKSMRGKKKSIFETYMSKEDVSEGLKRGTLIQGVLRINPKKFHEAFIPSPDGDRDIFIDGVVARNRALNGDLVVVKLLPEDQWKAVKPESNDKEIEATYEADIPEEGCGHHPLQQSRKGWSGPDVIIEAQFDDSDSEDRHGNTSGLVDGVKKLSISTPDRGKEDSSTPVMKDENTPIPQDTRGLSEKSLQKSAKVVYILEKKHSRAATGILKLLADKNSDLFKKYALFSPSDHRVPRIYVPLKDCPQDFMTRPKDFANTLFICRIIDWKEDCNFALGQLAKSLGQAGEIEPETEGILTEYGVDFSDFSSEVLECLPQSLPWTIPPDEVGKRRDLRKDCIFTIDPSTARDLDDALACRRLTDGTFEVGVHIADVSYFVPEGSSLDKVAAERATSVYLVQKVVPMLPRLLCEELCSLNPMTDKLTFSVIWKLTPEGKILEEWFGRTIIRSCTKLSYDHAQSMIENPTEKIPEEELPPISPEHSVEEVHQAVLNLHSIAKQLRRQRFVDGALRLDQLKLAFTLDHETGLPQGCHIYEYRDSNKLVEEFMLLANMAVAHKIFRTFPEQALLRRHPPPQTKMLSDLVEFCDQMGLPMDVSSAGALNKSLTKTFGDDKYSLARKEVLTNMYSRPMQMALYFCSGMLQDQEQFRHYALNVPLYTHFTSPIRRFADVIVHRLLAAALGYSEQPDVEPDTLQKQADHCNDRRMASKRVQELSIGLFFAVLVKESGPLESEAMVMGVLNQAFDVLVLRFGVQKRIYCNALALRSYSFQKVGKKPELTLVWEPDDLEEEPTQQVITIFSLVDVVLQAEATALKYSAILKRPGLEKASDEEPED

Variants of: B1
Conditions: with di3l2_mouse Dis3l2, Q8CI75

| effect of a mutation on the interaction | Variant |
| --- | --- |
| decreasing interaction strength | MGSVSNQQFAGGCAKAAEKAPEEAPPDAARAADEPQLLHGAGICKAFNVRMGFGFLSMTARAGVALDPPVDVFVHQSKLHMEGFRSLKEGEAVEFTFKKSAKGLESIRVTGPGGVFCIGSERRPKGKNMQKRRSKGDRCYNCGGLDHHAKECKLPPQPKKCHFCQSINHMVASCPLKAQQGPSSQGKPAYFREEEEEIHSPALLPEAQN [W46A] |
